The text below walks through data of patent US20230295310A1 (ABCELLERA BIOLOGICS, published 2023).

In one test the target is T1, human CD3e/g (human, UniProt P07766 23-126; P09693 23-116).
T1 construct: Bought soluble protein; also called hCD3e/g; human CD3e/g (Acro CDD-C52W4)
As to the kind of experiment: SPR (Carterra LSA), mAb on chip. Summed up: (§1)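 Purified mAbs amine-coupled (EDC/S-NHS) at 10 μg/mL in 10 mM NaOAc pH 4.25 onto an HC-30M chip, with benchmark and negative-control mAbs; analyte flowed over the array. Double-referenced sensorgrams fitted globally to a 1:1 Langmuir model for ka, kd and KD.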

Another test concerns the target T2, human CD3e/d (human, UniProt P07766 23-126; P04234 22-105).
T2 construct: Bought soluble protein; also called hCD3e/d; human CD3/ed (Sino CT038-H2508H)
As to the kind of experiment: SPR (Carterra LSA), mAb on chip. Summed up:
as §1

T2 sequence (P07766 23-126, chain 1 of 2): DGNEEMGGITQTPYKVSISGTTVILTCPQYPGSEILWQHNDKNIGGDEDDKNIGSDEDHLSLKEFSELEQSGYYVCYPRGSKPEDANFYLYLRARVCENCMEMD
T2 sequence (P04234 22-105, chain 2 of 2): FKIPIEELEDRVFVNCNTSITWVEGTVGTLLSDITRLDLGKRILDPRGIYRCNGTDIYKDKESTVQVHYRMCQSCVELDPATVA
T1 sequence (P07766 23-126, chain 1 of 2): as the sequence (P07766 23-126, chain 1 of 2) above
T1 sequence (P09693 23-116, chain 2 of 2): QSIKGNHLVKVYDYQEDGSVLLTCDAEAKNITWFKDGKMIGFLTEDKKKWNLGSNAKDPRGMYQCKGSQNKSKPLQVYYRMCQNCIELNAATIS

B1: mAb 141 (antibody, V domains shown)
VH: QVQLVQSGAEVKKPGASVKVSCKASGYTFTSYYIHWVRQAPGQGLDWMGIINPSGGITGYAQKLQGRVTMTRDTSTTTVYMELSSLRSDDTAVYYCARGVRGNYYYYYMDVWGKGTTVTVSS
VL: EIVLTQSPDFQSVTPKEKVTITCRASQSIGSKLHWYQQKPDQSPKLLIKYASQSFSGVPSRFSGSGSGTDFNLTINSLEAEDAATFYCHQSSGLPYTFGQGTKLEIK
notes: VH and VL only
For orientation: Kd means the constant that tells how readily two partners part at equilibrium. Lower therefore signals higher affinity. B1: the Kd was found to be 26 nM in the test with human CD3e/g and 92.1 nM in the test with human CD3e/d.

B2: mAb 145 (antibody, V domains shown)
VH: QVQLVQSGAEVKKPGASVKVSCKASGYTFTNYYIHWVRQAPGQGLDWMGIINPSGGITGYAQKFQGRVTMTRDTSTTTVYMELSSLRSDDTAVYYCARGVRGNYYYYYMDVWGKGTTVTVSS
VL: EIVLTQSPDFQSVTPKEKVTITCRASQSIGSKLHWYQQKPDQSPKLLIKFASQSFSGVPSRFSGSGSGTDFNLTINSLEPEDAATFYCHQSSGLPYTFGQGTKLEIK
notes: VH and VL only
Take B2: the results for the Kd in the test with human CD3e/g and with human CD3e/d were 13.1 nM and 61 nM, respectively.

B3: mAb 52 (antibody, V domains shown)
VH: QVQLVQSGAEVKKPGASVKVSCKASGYTFTSHDINWVRQATGQGLEWMGWLNPNSGKTGYAQKFQGRVTMARDTSMYTADMELSSLRFEDTAVYYCARVGHYDMWPGFFSFDYWGQGTLVTVSS
VL: DIQMTQSPSSLSASVGDRIIITCRASQDIRNDLGWYQQKPGKAPKRLIYAASSLQSGVPSRFSGSRSGTEFTLTISSLHPEDFATYYCLQHRSYPYTFGQGTNLEIK
notes: VH and VL only
B3: the Kd with human CD3e/g was determined as 112 nM; with human CD3e/d, 17.1 nM.

B4: mAb 137 (antibody, V domains shown)
VH: QVQLVESGGGVVQPGRSLRLSCAASGFTFSTYGMHWVRQAPGKGLEWVAVIWYDGSHKYYADSVKGRFTISRDNSKKTLYLQMNSLRAEDTGIYYCARTGISGNMSYFYFDHWGQGILVTVSS
VL: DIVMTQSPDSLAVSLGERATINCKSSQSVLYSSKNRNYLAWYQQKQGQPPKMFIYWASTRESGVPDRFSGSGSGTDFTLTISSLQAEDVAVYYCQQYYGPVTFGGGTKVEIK
notes: VH and VL only
Take B4: the Kd was found to be 950 nM with human CD3e/g and 181 nM with human CD3e/d.

B5: mAb 188 (antibody, V domains shown)
VH: QVQLVESGGGVVQPGRSLRLSCAASGFTFSGYGMHWVRQAPGKGLEWVAIIYYNGKKEYYADSVKGRFTISRDNSKNTLYLQMNSLRAEDTAVYYCTRGEGYNWFDPWGQGTLVTVSS
VL: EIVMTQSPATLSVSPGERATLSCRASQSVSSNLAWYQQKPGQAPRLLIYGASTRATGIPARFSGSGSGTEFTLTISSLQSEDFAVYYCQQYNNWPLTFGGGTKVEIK
notes: VH and VL only
With B5, the Kd with human CD3e/g turned out to be 17 nM; in the test with human CD3e/d it was 36 nM.

B6: mAb 209 (antibody, V domains shown)
VH: QVQLVESGGGVVQPGRSLRLSCAASGFTFSGYGMHWVRQAPGKGLEWVAIIYYNGKKEYYADSVKGRFTVSRDNSKNMLYLQMNSLRAEDTAVYYCTRGEGYNWFDPWGQGTLVTVSS
VL: EIVMTQSPATLSVSPGERATLSCRASQTVSSNLAWYQQKPGQAPRLLIYGASTRATGIPARFSGSGSGTEFTLTISSLQSEDFAVYYCKQYNNRPLTFGGGTKVEIK
notes: VH and VL only
Regarding B6, the Kd in the test with human CD3e/g was 5.7 nM; in the test with human CD3e/d it was 5.5 nM.

B7: mAb 189 (antibody, V domains shown)
VH: QVQLVESGGGVVQPGRSLRLSCAASGFTFSGYGMHWVRQAPGKGLEWVAIIYYDGKNKYYADSVKGRFTISRDNSKSTLYLQMNSLGADDTAVYYCTRGKGYNWFDPWGQGTLVTVSS
VL: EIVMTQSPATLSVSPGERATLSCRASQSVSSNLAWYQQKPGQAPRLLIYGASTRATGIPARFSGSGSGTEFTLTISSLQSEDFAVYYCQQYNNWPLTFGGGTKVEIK
notes: VH and VL only
Consider B7, for which the dissociation constant Kd is 60 nM with human CD3e/g and 110 nM in the test with human CD3e/d.

B8: mAb 201 (antibody, V domains shown)
VH: QVQLVESGGGVVQPGRSLRLSCAASGFTFSGYGMHWVRQAPGKGLEWVAIIYYNGKKEYYADSVKGRFTISRDNSKNTLYLQMNSLRAEDTAVYYCTRGEGYNWFDPWGQGTLVTVSS
VL: EIVMTQSPATLSVSPGERATLSCRASQSVSSSLAWYQQKPGQAPRLLIYGASTRATGIPARFSGSGSGTEFTLTISSLQSEDFAVYYCQQYNNWPLTFGGGTKVEIK
notes: VH and VL only
For B8, the dissociation constant Kd in the test with human CD3e/g is 13 nM; with human CD3e/d, 28 nM.

B9: mAb 192 (antibody, V domains shown)
VH: QVQLVESGGGVVQPGRSLRLSCAASGFTFSGYGMHWVRQAPGKGLEWVAIIYYNGKKEYYADSVKGRFTISRDNSKNTLYLQMNSLRAEDTAVYYCTRGEGYNWFDPWGQGILVTVSS
VL: EIVMTQSPATLSVSPGERATLSCRASQSVSSNLAWYQQKPGQAPRLLIYGASTRATGIPARFSGSGSGTEFTLTISSLQSEDFAVYYCKQYKNWPLTFGGGTKVEIK
notes: VH and VL only
As to B9, the figures for the Kd with human CD3e/g and with human CD3e/d were 9.3 nM and 9.2 nM, respectively.

B10: mAb 199 (antibody, V domains shown)
VH: QVQLVESGGGVVQPGRSLRLSCAASGFTFSGYGMHWVRQAPGKGLEWVAIIYYNGKKEYYADSVKGRFTIFRDNSKNTLYLHMNSLRAEDTAVYYCTRGEGYNWFDPWGQGTLVTVSS
VL: EIVMTQSPATLSVSPGERATLSCRASQSVSRNLAWYQQKPGQAPRLLIYGASTRATGIPARFSGSGSGTEFTLTISSLQSEDFAVYYCQQYNNWPLTFGGGTKVEIK
notes: VH and VL only
In the case of B10, the equilibrium dissociation constant (Kd) with human CD3e/g worked out at 29 nM; with human CD3e/d it was 26 nM.

B11: mAb 205 (antibody, V domains shown)
VH: QVQLVESGGGVVQPGKSLRLSCAASGFTFSGYGMHWVRQAPGKGLEWVAIIYYNGKKEYYADSVKGRFTISRDNSKNTLYLQMNSLRAEDTAVYYCTRGEGYNWFDPWGQGTLVTVSS
VL: EIVMTQSPATLSVSPGERATLSCRASQSVSSNLAWYQQKPGQAPRLLIYGASTRATGIPARFSGSGSGTEFTLTISSLQSEDFAVYYCKQYNNWPLTFGGGTKVEIK
notes: VH and VL only
For the molecule B11, the Kd with human CD3e/g was found to be 8.4 nM; in the test with human CD3e/d, 13 nM.

B12: mAb 203 (antibody, V domains shown)
VH: QVQLVESGGGVVQPGGSLRLSCAASGFTFRGYGMHWVRQAPGKGLEWVAIIYYNGRKTYYAESVKGRFTISRDNSKNTLSLQMNSLRVEDTAVYYCTAGQGYNWFDPWGQGTLVTVSS
VL: EIVMTQSPATLSVSPGERATLSCRASQSVSSNLAWYQQKPGQAPRLLIYGASTRATGIPARFSGSGSGTEFTLTISSLQSEDFAVYYCQQFNAWPLTFGGGTKMEIK
notes: VH and VL only
As for B12, the Kd with human CD3e/g turned out to be 9.5 nM; with human CD3e/d, 17 nM.

B13: mAb 197 (antibody, V domains shown)
VH: QVQLVESGGGVVQPGGSLRLSCAASGFTFSGYGMHWVRQAPGKGLEWVAIIWYNGRKTYYAESVKGRFTISRDNSKNTLSLQMNSLRVEDTAVYYCTTGQGYNWFDPWGQGTLVTVSS
VL: EIVMTQSPATLSVSPGERATLSCRASQSVSSNLAWYQQKPGQAPRLLIYGASTRATGIPARFSGSGSGTEFTLTISSLQSEDFAVYYCQQFNAWPLTFGGGTKMEIK
notes: VH and VL only
For the molecule B13, the dissociation constant (Kd) was 17 nM in the test with human CD3e/g and 49 nM with human CD3e/d.

B14: mAb 198 (antibody, V domains shown)
VH: QVQLVESGGGVVQPGGSLRLSCAASGFTFSGYGMHWVRQAPGKGLEWVAIIWYNGRKTYYAESVKGRFTISRDNSKNTLSLQMNSLRIEDTAVYYCTTGQGYNWFDPWGQGTLVTVSS
VL: EIVMTQSPATLSVSPGERATLSCRASQSVSSNLAWYQQKPGQAPRLLIYGASTRATGIPARFSGSGSGTEFTLTISSLQSEDFAVYYCQQFNAWPLTFGGGTKMEIK
notes: VH and VL only
Take B14: the equilibrium dissociation constant (Kd) with human CD3e/g came to 30 nM; with human CD3e/d, 41 nM.

B15: mAb 191 (antibody, V domains shown)
VH: QVQLVESGGGVVQPGRSLRLSCAASGFTFSGYGMHWVRQAPGKGLEWVAIIYYNGKKEYYADSVKGRFTISRDNSKNTLYLQMNSLRAEDTAVYYCTRGEGYNWFDPWGQGTLVTVSS
VL: EIVMTQSPATLSVSPGERATLSCRASQSVSSNLAWYQQKPGQAPRLLIYGASTRATGIPARFSGSGSGTDFTLTISSLQSEHFAVYYCQQYTNWPLTFGGGTKVEIK
notes: VH and VL only
B15: the Kd with human CD3e/g came to 15 nM; with human CD3e/d, 28 nM.

B16: mAb 204 (antibody, V domains shown)
VH: QVQLVESGGGVVQSGRSLRLSCAASGFTFSGYGMHWVRQAPGKGLEWVAIVYYDGKNKYYADSVKGRFTISRDNSKNTLYLQMNSLRAEDTAVYYCVRGEGYNWFDPWGQGTLVTVSS
VL: EIVMTQSPATLSVSPGERATLSCRASQSVSSNLAWYQQKPGQVPRLLIYGASTRATGIPARFSGSGSGTQFTLTISSLQSEDFAVYYCQQYNNWPLTFGGGTKVEIK
notes: VH and VL only
B16: the Kd with human CD3e/g worked out at 90 nM; in the test with human CD3e/d, 200 nM.

B17: mAb 164 (antibody, V domains shown)
VH: EVQLVESGGGLVKTGGSLRLSCVASGFSFKKAWMNWVRQAPGKGLEWVGRIKRNTDGGTADYAAPVKGRFTLSRDDSKKTLFLQMNSLKTEDTAVYYCTTLDSSSYYVGYYYMDVWGKGTTVTVSS
VL: DIQMTQSPSSVSASVGDRVTITCRASQDIKNWLAWYQQKPGKAPKLLIYTASSLQSGVPSRFSGSGSGTDFTLTIGSLQPEDFATYYCQQAHSLPITFGQGTRLEIK
notes: VH and VL only
With B17, the Kd in the test with human CD3e/g is 15 nM; with human CD3e/d, 77 nM.

B18: mAb 169 (antibody, V domains shown)
VH: EVQLVESGGGLVKTGGSLRLSCVASGFSFKKAWMNWVRQAPGKGLEWVGRIKRNTDGGTADYAAPVKGRFTLSRDDSKKTLFLQMNSLKTEDTAVYYCTTLDSSSYYVGYYYMDVWGKGTTVTVSS
VL: DIQMTQSPSSVSASVGDRVIITCRASQDINNWLAWYQQKPGKAPKLLIYTASSLQSGVPSRFSGSGSGTDFILTIGSLQPEDFATYYCQQAHSLPITFGQGTRLEIK
notes: VH and VL only
As to B18, the dissociation constant Kd stood at 12.6 nM with human CD3e/g and 73.8 nM with human CD3e/d.

B19: mAb 165 (antibody, V domains shown)
VH: EVQLVESGGGLVKTGGSLRLSCVASGFSFKKAWMNWVRQAPGKGLEWVGRIKRNTDGGTADYAAPVKGRFTLSRDDSKRTLYLQMNSLKTEDTAVYYCTTLDSSSRYVGYYYMDVWGKGTTVTVSS
VL: DIQMTQSPSSVSASVGDRVIITCRASQDINNWLAWYQQKPGKVPKLLIYTASSLQSGVPSRFSGSGSGTDFTLTIGSLQPEDFATYYCQQAHSLPITFGQGTRLEIK
notes: VH and VL only
For the molecule B19, the Kd with human CD3e/g is 10.6 nM; with human CD3e/d, 40.4 nM.

B20: mAb 166 (antibody, V domains shown)
VH: EVQLVESGGGLVKTGGSLRLSCVASGFSFKKAWMNWVRQAPGRGLEWVGRIKRNTDGGTTDYAAPVKGRFTLSRDDSKNMLYLQMNSLKTEDTAVYYCTTLDSSSLYVGYYYMDVWGKGTTVTVSS
VL: DIQMTQSPSSVSASVGDRVTITCRASQDINNWLAWYQQKPGKAPKLLIYTASSLQSGVPSRFSGSGSGTDFTLTISSLQPEDFATYFCQQAHSLPITFGQGTRLEIT
notes: VH and VL only
Turning to B20, the Kd amounted to 12.5 nM in the test with human CD3e/g and 47.3 nM in the test with human CD3e/d.
